We go through nine molecules from patent US20190112393 (published 2019).

One may read the Kd as the free concentration of one partner at which half of the binding sites on the other are occupied at equilibrium, for simple one-to-one binding. A higher Kd goes with weaker binding.

This experiment addresses human FcRn (human). As to the kind of experiment: SPR, pH 6.0. (In SPR one partner is held on a chip, and binding of the other changes the refractive index at the surface.)

Sequence of human FcRn (human) (chain, as listed by the source, chain 1 of 2): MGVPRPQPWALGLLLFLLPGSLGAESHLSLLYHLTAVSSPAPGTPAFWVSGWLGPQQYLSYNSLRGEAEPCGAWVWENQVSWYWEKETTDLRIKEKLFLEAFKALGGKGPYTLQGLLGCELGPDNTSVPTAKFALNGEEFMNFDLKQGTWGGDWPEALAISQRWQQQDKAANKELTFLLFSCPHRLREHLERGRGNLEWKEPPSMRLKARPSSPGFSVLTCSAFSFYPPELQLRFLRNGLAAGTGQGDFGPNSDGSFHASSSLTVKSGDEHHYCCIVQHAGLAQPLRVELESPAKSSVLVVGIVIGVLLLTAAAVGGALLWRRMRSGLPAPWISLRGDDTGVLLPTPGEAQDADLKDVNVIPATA
Sequence of human FcRn (human) (chain, as listed by the source, chain 2 of 2): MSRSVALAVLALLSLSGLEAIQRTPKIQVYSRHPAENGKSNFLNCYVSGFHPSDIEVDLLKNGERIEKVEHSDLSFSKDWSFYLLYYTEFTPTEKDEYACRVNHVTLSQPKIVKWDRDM

B1: F1382 (antibody)
chain 1: QVQLQESGPGLVKPSETLSLTCAVSGHSISHDHAWSWVRQPPGEGLEWIGFISYSGITNYNPSLQGRVTISRDNSKNTLYLQMNSLRAEDTAVYYCARSLARTTAMDYWGEGTLVTVSSASTKGPSVFPLAPSSKSTSGGTAALGCLVKDYFPEPVTVSWNSGALTSGVHTFPAVLQSSGLYSLSSVVTVPSSSLGTQTYICNVNHKPSNTKVDKKVEPKSCDKTHTCPPCPAPELLGGPSVFLFPPKPKDTLMISRTPEVTCVVVDVSHEDPEVKFNWYVDGVEVHNAKTKPREEQYNSTYRVVSVLTVLHQDWLNGKEYKCKVSNKALPAPIEKTISKAKGQPREPQVYTLPPSRDELTKNQVSLTCLVKGFYPSDIAVEWESNGQPENNYKTTPPVLDSDGSFFLYSKLTVDKSRWQQGNVFSCKVLHEALHSHYTQKSLSLSP
chain 2: DIQMTQSPSSLSASVGDSVTITCQASTDISSHLNWYQQKPGKAPELLIYYGSHLLSGVPSRFSGSGSGTDFTFTISSLEAEDAATYYCGQGNRLPYTFGQGTKVEIERTVAAPSVFIFPPSDEQLKSGTASVVCLLNNFYPREAKVQWKVDNALQSGNSQESVTEQDSKDSTYSLSSTLTLSKADYEKHKVYACEVTHQGLSSPVTKSFNRGEC
As for B1, binding was put at a Kd of 130 nM. This counts as sub-micromolar.

B2: F1387 (antibody)
chain 1: QVQLQESGPGLVKPSETLSLTCAVSGHSISHDHAWSWVRQPPGEGLEWIGFISYSGITNYNPSLQGRVTISRDNSKNTLYLQMNSLRAEDTAVYYCARSLARTTAMDYWGEGTLVTVSSASTKGPSVFPLAPSSKSTSGGTAALGCLVKDYFPEPVTVSWNSGALTSGVHTFPAVLQSSGLYSLSSVVTVPSSSLGTQTYICNVNHKPSNTKVDKKVEPKSCDKTHTCPPCPAPELLGGPSVFLFPPKPKDTLMISRTPEVTCVVVDVSHEDPEVKFNWYVDGVEVHNAKTKPREEQYNSTYRVVSVLTVLHQDWLNGKEYKCKVSNKALPAPIEKTISKAKGQPREPQVYTLPPSRDELTKNQVSLTCLVKGFYPSDIAVEWESNGQPENNYKTTPPVLDSDGSFFLYSKLTVDKSRWQQGNVFSCSVLHEALHSHMTQKSLSLSP
chain 2: DIQMTQSPSSLSASVGDSVTITCQASTDISSHLNWYQQKPGKAPELLIYYGSHLLSGVPSRFSGSGSGTDFTFTISSLEAEDAATYYCGQGNRLPYTFGQGTKVEIERTVAAPSVFIFPPSDEQLKSGTASVVCLLNNFYPREAKVQWKVDNALQSGNSQESVTEQDSKDSTYSLSSTLTLSKADYEKHKVYACEVTHQGLSSPVTKSFNRGEC
For B2, the Kd worked out at 150 nM.

B3: F1381 (antibody)
chain 1: QVQLQESGPGLVKPSETLSLTCAVSGHSISHDHAWSWVRQPPGEGLEWIGFISYSGITNYNPSLQGRVTISRDNSKNTLYLQMNSLRAEDTAVYYCARSLARTTAMDYWGEGTLVTVSSASTKGPSVFPLAPSSKSTSGGTAALGCLVKDYFPEPVTVSWNSGALTSGVHTFPAVLQSSGLYSLSSVVTVPSSSLGTQTYICNVNHKPSNTKVDKKVEPKSCDKTHTCPPCPAPELLGGPSVFLFPPKPKDTLMISRTPEVTCVVVDVSHEDPEVKFNWYVDGVEVHNAKTKPREEQYNSTYRVVSVLTVLHQDWLNGKEYKCKVSNKALPAPIEKTISKAKGQPREPQVYTLPPSRDELTKNQVSLTCLVKGFYPSDIAVEWESNGQPENNYKTTPPVLDSDGSFFLYSKLTVDKSRWQQGNVFSCEVLHEALHSHYTQKSLSLSP
chain 2: DIQMTQSPSSLSASVGDSVTITCQASTDISSHLNWYQQKPGKAPELLIYYGSHLLSGVPSRFSGSGSGTDFTFTISSLEAEDAATYYCGQGNRLPYTFGQGTKVEIERTVAAPSVFIFPPSDEQLKSGTASVVCLLNNFYPREAKVQWKVDNALQSGNSQESVTEQDSKDSTYSLSSTLTLSKADYEKHKVYACEVTHQGLSSPVTKSFNRGEC
As for B3, the equilibrium dissociation constant (Kd) was 86 nM.

B4: F1391 (antibody)
chain 1: QVQLQESGPGLVKPSETLSLTCAVSGHSISHDHAWSWVRQPPGEGLEWIGFISYSGITNYNPSLQGRVTISRDNSKNTLYLQMNSLRAEDTAVYYCARSLARTTAMDYWGEGTLVTVSSASTKGPSVFPLAPSSKSTSGGTAALGCLVKDYFPEPVTVSWNSGALTSGVHTFPAVLQSSGLYSLSSVVTVPSSSLGTQTYICNVNHKPSNTKVDKKVEPKSCDKTHTCPPCPAPELLGGPSVFLFPPKPKDTLMISRTPEVTCVVVDVSHEDPEVKFNWYVDGVEVHNAKTKPREEQYNSTYRVVSVLTVLHQDWLNGKEYKCKVSNKALPAPIEKTISKAKGQPREPQVYTLPPSRDELTKNQVSLTCLVKGFYPSDIAVEWESNGQPENNYKTTPPVLDSDGSFFLYSKLTVDKSRWQQGNVFSCSVLHEALHSHNTQKSLSLSP
chain 2: DIQMTQSPSSLSASVGDSVTITCQASTDISSHLNWYQQKPGKAPELLIYYGSHLLSGVPSRFSGSGSGTDFTFTISSLEAEDAATYYCGQGNRLPYTFGQGTKVEIERTVAAPSVFIFPPSDEQLKSGTASVVCLLNNFYPREAKVQWKVDNALQSGNSQESVTEQDSKDSTYSLSSTLTLSKADYEKHKVYACEVTHQGLSSPVTKSFNRGEC
Consider B4, for which the Kd was determined as 420 nM. This Kd is about 4.9-fold higher than that of the molecule before.

B5: F1384 (antibody)
chain 1: QVQLQESGPGLVKPSETLSLTCAVSGHSISHDHAWSWVRQPPGEGLEWIGFISYSGITNYNPSLQGRVTISRDNSKNTLYLQMNSLRAEDTAVYYCARSLARTTAMDYWGEGTLVTVSSASTKGPSVFPLAPSSKSTSGGTAALGCLVKDYFPEPVTVSWNSGALTSGVHTFPAVLQSSGLYSLSSVVTVPSSSLGTQTYICNVNHKPSNTKVDKKVEPKSCDKTHTCPPCPAPELLGGPSVFLFPPKPKDTLMISRTPEVTCVVVDVSHEDPEVKFNWYVDGVEVHNAKTKPREEQYNSTYRVVSVLTVLHQDWLNGKEYKCKVSNKALPAPIEKTISKAKGQPREPQVYTLPPSRDELTKNQVSLTCLVKGFYPSDIAVEWESNGQPENNYKTTPPVLDSDGSFFLYSKLTVDKSRWQQGNVFSCAVLHEALHSHYTQKSLSLSP
chain 2: DIQMTQSPSSLSASVGDSVTITCQASTDISSHLNWYQQKPGKAPELLIYYGSHLLSGVPSRFSGSGSGTDFTFTISSLEAEDAATYYCGQGNRLPYTFGQGTKVEIERTVAAPSVFIFPPSDEQLKSGTASVVCLLNNFYPREAKVQWKVDNALQSGNSQESVTEQDSKDSTYSLSSTLTLSKADYEKHKVYACEVTHQGLSSPVTKSFNRGEC
In turn, B5 came in with a Kd of 86 nM.

B6: F1386 (antibody)
chain 1: QVQLQESGPGLVKPSETLSLTCAVSGHSISHDHAWSWVRQPPGEGLEWIGFISYSGITNYNPSLQGRVTISRDNSKNTLYLQMNSLRAEDTAVYYCARSLARTTAMDYWGEGTLVTVSSASTKGPSVFPLAPSSKSTSGGTAALGCLVKDYFPEPVTVSWNSGALTSGVHTFPAVLQSSGLYSLSSVVTVPSSSLGTQTYICNVNHKPSNTKVDKKVEPKSCDKTHTCPPCPAPELLGGPSVFLFPPKPKDTLMISRTPEVTCVVVDVSHEDPEVKFNWYVDGVEVHNAKTKPREEQYNSTYRVVSVLTVLHQDWLNGKEYKCKVSNKALPAPIEKTISKAKGQPREPQVYTLPPSRDELTKNQVSLTCLVKGFYPSDIAVEWESNGQPENNYKTTPPVLDSDGSFFLYSKLTVDKSRWQQGNVFSCYVLHEALHSHYTQKSLSLSP
chain 2: DIQMTQSPSSLSASVGDSVTITCQASTDISSHLNWYQQKPGKAPELLIYYGSHLLSGVPSRFSGSGSGTDFTFTISSLEAEDAATYYCGQGNRLPYTFGQGTKVEIERTVAAPSVFIFPPSDEQLKSGTASVVCLLNNFYPREAKVQWKVDNALQSGNSQESVTEQDSKDSTYSLSSTLTLSKADYEKHKVYACEVTHQGLSSPVTKSFNRGEC
With B6, the Kd came out at 160 nM. Against the preceding molecule, the Kd is about 1.9-fold higher.

B7: F1383 (antibody)
chain 1: QVQLQESGPGLVKPSETLSLTCAVSGHSISHDHAWSWVRQPPGEGLEWIGFISYSGITNYNPSLQGRVTISRDNSKNTLYLQMNSLRAEDTAVYYCARSLARTTAMDYWGEGTLVTVSSASTKGPSVFPLAPSSKSTSGGTAALGCLVKDYFPEPVTVSWNSGALTSGVHTFPAVLQSSGLYSLSSVVTVPSSSLGTQTYICNVNHKPSNTKVDKKVEPKSCDKTHTCPPCPAPELLGGPSVFLFPPKPKDTLMISRTPEVTCVVVDVSHEDPEVKFNWYVDGVEVHNAKTKPREEQYNSTYRVVSVLTVLHQDWLNGKEYKCKVSNKALPAPIEKTISKAKGQPREPQVYTLPPSRDELTKNQVSLTCLVKGFYPSDIAVEWESNGQPENNYKTTPPVLDSDGSFFLYSKLTVDKSRWQQGNVFSCRVLHEALHSHYTQKSLSLSP
chain 2: DIQMTQSPSSLSASVGDSVTITCQASTDISSHLNWYQQKPGKAPELLIYYGSHLLSGVPSRFSGSGSGTDFTFTISSLEAEDAATYYCGQGNRLPYTFGQGTKVEIERTVAAPSVFIFPPSDEQLKSGTASVVCLLNNFYPREAKVQWKVDNALQSGNSQESVTEQDSKDSTYSLSSTLTLSKADYEKHKVYACEVTHQGLSSPVTKSFNRGEC
Consider B7, for which the Kd came to 160 nM. This counts as sub-micromolar.

B8: F1390 (antibody)
chain 1: QVQLQESGPGLVKPSETLSLTCAVSGHSISHDHAWSWVRQPPGEGLEWIGFISYSGITNYNPSLQGRVTISRDNSKNTLYLQMNSLRAEDTAVYYCARSLARTTAMDYWGEGTLVTVSSASTKGPSVFPLAPSSKSTSGGTAALGCLVKDYFPEPVTVSWNSGALTSGVHTFPAVLQSSGLYSLSSVVTVPSSSLGTQTYICNVNHKPSNTKVDKKVEPKSCDKTHTCPPCPAPELLGGPSVFLFPPKPKDTLMISRTPEVTCVVVDVSHEDPEVKFNWYVDGVEVHNAKTKPREEQYNSTYRVVSVLTVLHQDWLNGKEYKCKVSNKALPAPIEKTISKAKGQPREPQVYTLPPSRDELTKNQVSLTCLVKGFYPSDIAVEWESNGQPENNYKTTPPVLDSDGSFFLYSKLTVDKSRWQQGNVFSCSVLHEALHSHHTQKSLSLSP
chain 2: DIQMTQSPSSLSASVGDSVTITCQASTDISSHLNWYQQKPGKAPELLIYYGSHLLSGVPSRFSGSGSGTDFTFTISSLEAEDAATYYCGQGNRLPYTFGQGTKVEIERTVAAPSVFIFPPSDEQLKSGTASVVCLLNNFYPREAKVQWKVDNALQSGNSQESVTEQDSKDSTYSLSSTLTLSKADYEKHKVYACEVTHQGLSSPVTKSFNRGEC
In turn, B8 yielded a Kd of 400 nM.

B9: F1389 (antibody)
chain 1: QVQLQESGPGLVKPSETLSLTCAVSGHSISHDHAWSWVRQPPGEGLEWIGFISYSGITNYNPSLQGRVTISRDNSKNTLYLQMNSLRAEDTAVYYCARSLARTTAMDYWGEGTLVTVSSASTKGPSVFPLAPSSKSTSGGTAALGCLVKDYFPEPVTVSWNSGALTSGVHTFPAVLQSSGLYSLSSVVTVPSSSLGTQTYICNVNHKPSNTKVDKKVEPKSCDKTHTCPPCPAPELLGGPSVFLFPPKPKDTLMISRTPEVTCVVVDVSHEDPEVKFNWYVDGVEVHNAKTKPREEQYNSTYRVVSVLTVLHQDWLNGKEYKCKVSNKALPAPIEKTISKAKGQPREPQVYTLPPSRDELTKNQVSLTCLVKGFYPSDIAVEWESNGQPENNYKTTPPVLDSDGSFFLYSKLTVDKSRWQQGNVFSCSVLHEALHSHTTQKSLSLSP
chain 2: DIQMTQSPSSLSASVGDSVTITCQASTDISSHLNWYQQKPGKAPELLIYYGSHLLSGVPSRFSGSGSGTDFTFTISSLEAEDAATYYCGQGNRLPYTFGQGTKVEIERTVAAPSVFIFPPSDEQLKSGTASVVCLLNNFYPREAKVQWKVDNALQSGNSQESVTEQDSKDSTYSLSSTLTLSKADYEKHKVYACEVTHQGLSSPVTKSFNRGEC
Take B9: binding was put at a Kd of 68 nM.
